Laboratory results from PMC8960973, “Pretransition state and apo structures of the filament-forming enzyme SgrAI elucidate mechanisms of activation and substrate specificity” (The Journal of Biological Chemistry, 2022).

T1: SgrAI restriction endonuclease (UniProt Q9F6L0 1-339)
T1 sequence: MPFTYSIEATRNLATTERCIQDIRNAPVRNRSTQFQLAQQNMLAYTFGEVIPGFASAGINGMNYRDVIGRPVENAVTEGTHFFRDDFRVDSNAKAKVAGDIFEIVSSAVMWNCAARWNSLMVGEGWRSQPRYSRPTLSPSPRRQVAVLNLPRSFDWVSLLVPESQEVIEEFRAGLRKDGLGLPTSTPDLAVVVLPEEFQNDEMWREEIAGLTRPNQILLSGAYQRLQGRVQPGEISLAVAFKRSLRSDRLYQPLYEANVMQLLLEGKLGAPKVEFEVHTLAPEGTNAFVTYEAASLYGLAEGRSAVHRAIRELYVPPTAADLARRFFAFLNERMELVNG

B1: SgrAI type II restriction endonuclease, wildtype (enzyme)
chain: T1 sequence
notes: homodimer of 74 kDa; in the crystal it is DNA-free with Ca2+; also called SgrAI dimer; source: E. coli BL21 (DE3), purified (Talon resin, heparin FF, Superdex-200 SEC)
B2: 40-1 (40 bp primary site DNA) (dsDNA)
DNA 1: GATGCGTGGGTCTTCACACCGGTGGATGCGTGGGTCTTCA
DNA 2: TGAAGACCCACGCATCCACCGGTGTGAAGACCCACGCATC

Columns and labels:
[1] = molecular target: the molecule itself; assay: crystal structure; DNA-free (apo) SgrAI with Ca2+; hanging drop, 5% PEG 4000, 0.1 M imidazole pH 6.5, 0.1 M NaCl, 5 mM Ca(OAc)2, 17 °C; two chains per asymmetric unit forming the dimer
[2] = molecular target: the molecule itself; assay: cryo-EM structure; run-on oligomeric filaments of SgrAI dimers bound to 40 bp primary site DNA (CACCGGTG, intact scissile phosphate); 4.9 uM SgrAI, 41 uM dsDNA, 10 mM Ca2+, room temperature 1 h; helical symmetry rise 21.2 A, twist -85.8 deg
[3] = molecular target: T1, SgrAI restriction endonuclease; assay: cryo-EM structure (2.7 A); Ca2+ (sites A and B), filamentous, intact scissile phosphate; EM sample buffer not given in the material; Ca2+ in place of Mg2+; SgrAI stored after SEC in 25 mM Tris-HCl pH 8, 150 mM NaCl, 1 mM DTT; conditions: protein: recombinant; chain copies: 2; blunt

| Binder | stoichiometry N [1] [chains per dimer] | stoichiometry N [2] | binding result [3] |
| --- | --- | --- | --- |
| B1 | 2 | < 10 DBDs (DNA-bound SgrAI dimers) per filament |  |
| B2 |  |  | binds |
